Data as given in the nanobody polyreactivity screen of Harvey et al. (2022).

Assay: yeast display, Sf9 membrane polyspecificity reagent, FACS + sequencing; frameworks hold sequencing errors
Outline: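 Sorting gates, low and high (top ~1%), were placed on anti-HA fluorescence to track expression and on streptavidin fluorescence to track reagent binding. A clone's polyreactivity label is taken from the gate it came out of. The reagent was 10% biotinylated, detergent-solubilized Sf9 membrane, applied for 1 hour at 4 °C to galactose-induced yeast display cells.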

Sequence	polyreactivity (PSR sort gate)
QVQLVESGGGLVQAGGSLRLSCAASGRSLYNTMGWYRQAPGKERELVAGINWGGGRTYADSVKGRFTISRDNAKNTVYLQMNSMKPEDTAVYYCAADVNYQSRSHIVDYEYGYWGQGTQVTVSS	low polyreactivity
QVQLVESGGGLVQAGGSLRLSCAASGRTFKPYAMGWYRQAPGKERELVAAISTRGGSTYYADSVKGRFTISRDNAKNTVYLQMNSLKPEDTAVYYCAATQPGRDYDYWGQGTQVTVSS	low polyreactivity
QVQLVESGGGLVQAGGSLRLSCAASGRTFYFNGMGWYRQAPGKERELVAAIRWRDSNTYYADSVKGRFTISRDNAKNTVYLQMNSLKPEDTAVYYCNVGIYSYGINGRYDYWGQGTQVTVSS	high polyreactivity
QVQLVESGGGLVQAGGSLRLSCAASGSTFTYNAMGWYRQAPGKERELVAAIRSNGGSTYADSVKGRFTISRDNAKNTVYLQMNCLKPEDTAVYYWAARWRDYYRWGSRGGYGYWGQGTQVTVSS	high polyreactivity
QVQLVESGGGLVQAGGSLRLSCAASGITFTVYAMGWYRQATRKERELVAAITSTGSTNYADSVKGLFTISRDNAKNTVYLQMNSLKPEDTAVYYCAADRQITVYAFDYWGQGTQVTVSS	low polyreactivity
QVQLVESGGGLVQAGGSLRLSCAASGGTFNRYAMGWYRQAPGKERELVAAISWSGGSTYYADSVKGRFTISRDTAKNTVYLQMNSLKPEDTAVYYCNARNWYYEGDYWGQGTQVTVSS	high polyreactivity
QVQLVESGGGLVQAGGSLRLSCAASGRTFTFNSMGGYRQAPGKERELFSRIDWRGITYADSVKGRFTISRDNAKYTVYLQMNSLKPEVTAVYYCSATFIQVVVNVQLYDYDYWGQGTQVTVSS	low polyreactivity
QVQLVESGGGLVQAGGSLRLTCAASGSIFYAYAMGWYRQAPGKERELVAGITFSDDSTYYADSVKGRFTISRDNAKNTVYLQMNSLKPEDTAVYYCAADTISWYGNYYYWGQGTQVTVSS	high polyreactivity
QVQLVESGGGLVQAGGSLRLSCAASGSIFEYYAMGWYRTAPGKERELVAAISSGGPTYYADSVKGRFTISRDNAKNTVYLQMNSLKPEDSAVYYCNADLWYPDYDYWGQGTQVTVSS	low polyreactivity
QVQLVESGGGLVQAGGILRLSCDASGFTFYYYTMGWYRQAPGKERELVAAISKSGGTTYYADSVKGRFTISRDNAKNTVYLQMNSLKPEDTAVYYCAAKPWVWVYARYGKHPSYDYWGQGTQVTVSS	high polyreactivity
QVHLVESGGGLVQAGGSLRLSCAASGFIFKFDAMGWYRQAPGKEREMVAAITASSGRTNYADSVKGRFTISRDNAKNTVYLHMNSLKPEDTAVYFCAARRWPKYSAYRYDYWGQGTQVTVSS	high polyreactivity
QVQLVESGGGLVQAGGSLRLSCAASGITFSYNARGWYRQAPGKERELVAAIRVGDGSTYYADSVKGRFTISRDNAKNTVYLQMHSLKPEDTAVYYWNARYLRLRYPYTDEYNYWGQGTQVTVSS	low polyreactivity
QVQLVESGGGLVQAGGRLRLSCAASGSTFVYNAMGWYRPAPGKERELVAAISRSGGRTYYADSVKGRFTISRDNAKNSVYLQMNSLKPEDTAVYYCAVLLRGIEYDYWGQGTQVTVSS	high polyreactivity
QVQLVESGGGLVQAGGSLRLSCAASGIIFNYYAMGWYRQAPGKERELVAAITRGGRTNYADSVKGRFTISRDNAKNTVYLQMNSLKPEDTAVYYCNAPAFYTYKSFYAHSGYDYWGQGTQVTVSS	high polyreactivity
QVQLVESGGGLVHAGGSLRLSCAASGSTYYGNAMGWYIQAPRKERELVAAINRGGSTYYADSVKGRFTISRDNAKNTVYLQMKSLKPEDTAVYYCAADYEYLPKTRDGYYWGQGTQVTVSS	low polyreactivity
QVQLVESGGGLVQAGGSLRLSCAASGSTYANAMGWYRQAPGKERELVAAITDNGGRTYYADSVKGRFTISRDNAKNTFYLQMNSLKPEDTAVYYCAARSSVWGQGTQVTVSS	low polyreactivity
QVQLVESGGGLVQAGGSLRLSCAASGSIFANAMGWYRQAHGKERELVAAISFSGGRTFYADSVKGRFTISRDNAKNTVYLQMNSLKPEDTAVYYCAKGKISSRSGIYNYWGQGTQVTVSS	high polyreactivity
